According to PMC4016012, “Successful Conversion of the Bacillus subtilis BirA Group II Biotin Protein Ligase into a Group I Ligase” (PLoS ONE, 2014):

T1: BirA (biotin protein ligase, Group II) (Bacillus subtilis 168) (UniProt P0CI75)
T1 sequence: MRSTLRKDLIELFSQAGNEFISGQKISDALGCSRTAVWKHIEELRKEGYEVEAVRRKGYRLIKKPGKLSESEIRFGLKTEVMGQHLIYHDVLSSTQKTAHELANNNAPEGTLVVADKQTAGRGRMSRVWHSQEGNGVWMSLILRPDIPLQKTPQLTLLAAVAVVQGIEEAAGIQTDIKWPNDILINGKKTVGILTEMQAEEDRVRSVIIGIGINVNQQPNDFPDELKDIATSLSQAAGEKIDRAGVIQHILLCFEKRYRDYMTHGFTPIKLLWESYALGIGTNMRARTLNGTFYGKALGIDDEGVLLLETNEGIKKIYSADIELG

B1: B. subtilis N-terminally hexahistidine-tagged BirA (enzyme, Bacillus subtilis, UniProt P0CI75 1-325, looked up)
chain: T1 sequence
notes: 325 residues by the names of the constructs (64-325 etc.); no step that removes the tag is described; The vector is pET19b, whose own tag may be longer than six histidines and is followed by a linker (surmise); also called wild type BirA; B. subtilis BirA; source: E. coli BL21 (λ DE3) with pSKH001, purified (Ni NTA)
B2: B. subtilis N-terminally hexahistidine-tagged Δ2-65 BirA (domain or fragment, Bacillus subtilis, UniProt P0CI75 66-325, looked up)
chain: GKLSESEIRFGLKTEVMGQHLIYHDVLSSTQKTAHELANNNAPEGTLVVADKQTAGRGRMSRVWHSQEGNGVWMSLILRPDIPLQKTPQLTLLAAVAVVQGIEEAAGIQTDIKWPNDILINGKKTVGILTEMQAEEDRVRSVIIGIGINVNQQPNDFPDELKDIATSLSQAAGEKIDRAGVIQHILLCFEKRYRDYMTHGFTPIKLLWESYALGIGTNMRARTLNGTFYGKALGIDDEGVLLLETNEGIKKIYSADIELG
notes: no step that removes the tag is described; Primer SKH047 (BirA 66-325 NdeI F) reads ATGGGAAAACTCAGTGAAAGC, i.e. M-GKLSES; also called BirA 66-325; Δ2-66 BirA (so named in the methods); source: E. coli BL21 (λ DE3) with pSKH020, purified (Ni NTA)

Molecular target: the molecule itself
Test: cross-linking; purified BirA 30 µM in 50 mM HEPES pH 7.5, 500 mM NaCl, 0.1 mM TCEP, 5% glycerol; with biotin (0.1 mM) and ATP (0.1 mM), room temperature 30 min; EGS 0.125-0.5 mM, room temperature 30 min; SDS-PAGE on 4-20% gels
Details: not given

Molecule | stoichiometry N
B1 | 2
B2 | 2

Each molecule was assayed against T1, BirA (biotin protein ligase, Group II) (Bacillus subtilis 168) (assay: EMSA). Details: 50 mM Tris-HCl pH 8.0, 1 mM EDTA, 50 mM NaCl, 10% glycerol, 40 nM DNA, 15.6-500 nM BirA, 1 mM ATP, 1 mM MgCl2, 1 uM biotin; room temperature 30 min; 6% gel in ….

Molecule | binding
AACGATCGGGATTTCCATTTTCATCGATTCCAAAATGGCTACCTCCTGGCCCTTTTCGATTTGGTCGCCGGCTTTGACGTGGACTTTCCACAGGTTTCCTGCCATTTGTATGCTAACCGTCATGC (double strand) [non-operator DNA (yngHB/blap internal fragment)] | no binding
ATTCAAAGGTTAACAATTAGAATATATTATTCTCTCCTGTTTCTGTCAATAGAAGAAAGGATCGATTTATGGCAGTTGGTTAAAAGGAAACAAAAAGACCGTTTTCACACAAAACGGTCTTTTTC (double strand) [B. subtilis bioO half site] | no binding
CCAAAAAGTAATCAAATATGGTTATACAATAAATGCAGGTAATTATTATGTCAACTGATTTTTAATTTAAGTTTACATAATGAACGCAAAAAAACCGGCCGTATGGCAGACCGGTTTTTGATGGT (double strand) [yhfU operator] | binds
CCCTTAGGTTGACATACACAATCATAGAGTAATAAAGAACAAAAAGATTGTCAACATGATTTTAAATTAGGTTAACAAAAAGGAGGCCCATATGTATTTCGGAAAAACAAGACAGTCCGATCAAT (double strand) [yuiG operator] | binds
CCTTTCACTGATAACTGAAGAACGTGTAGCGCTTCTCACCTAAATTGTTAACCAATTATATTCAAAGGTTAACAATTAGAATATATTATTCTCTCCTGTTTCTGTCAATAGAAGAAAGGATC (double strand) [B. subtilis bioO (bioWAFDBI operator)] | binds
GGGGCTTCTCCAAAACGTGTTTTTTGTTGTTAATTCGGTGTAGACTTGTAAACCTAAATCTTTTCAATTTGGTTTACAAGTCGATTATGACAACGGACGATCTTGCCTTTGACCAACGCCATATC (double strand) [E. coli bioO] | binds more weakly
